# Paper PMC6652007, “Metabolic engineering of Clostridium thermocellum for n-butanol production from cellulose” (Biotechnology for Biofuels, 2019)
# How the values were obtained:
# [1] = system: T1, NC(=O)C1=CN([C@@H]2O[C@H](COP(=O)(O)OP(=O)(O)OC[C@H]3O[C@@H](n4cnc5c(N)ncnc54)[C@H](OP(=O)(O)O)[C@@H]3O)[C@@H](O)[C@H]2O)C=CC1; assay: NAD(P)H oxidation, A340; type: biochemical, Thermoanaerobacterium thermosaccharolyticum; settings: acetoacetyl-CoA as substrate, 100 mM MOPS-KOH pH 7.5, 55 °C, varied: cofactor
# T1 construct: His-tagged (vector pD861-CH), codon-optimised, expressed in E. coli BL21(DE3)
# Description: (§1) NAD(P)H oxidation, A340 on Tt_Hbd
# [2] = system: T2, NC(=O)C1=CN([C@@H]2O[C@H](COP(=O)(O)OP(=O)(O)OC[C@H]3O[C@@H](n4cnc5c(N)ncnc54)[C@H](O)[C@@H]3O)[C@@H](O)[C@H]2O)C=CC1; assay: NAD(P)H oxidation, A340; type: biochemical, Thermoanaerobacterium thermosaccharolyticum; settings: acetoacetyl-CoA as substrate, 100 mM MOPS-KOH pH 7.5, 55 °C, varied: cofactor
# T2 construct: His-tagged (vector pD861-CH), codon-optimised, expressed in E. coli BL21(DE3)
# Description: as §1
# [3] = system: T3, CC(=O)CC(=O)SCCNC(=O)CCNC(=O)[C@H](O)C(C)(C)COP(=O)(O)OP(=O)(O)OC[C@H]1O[C@@H](n2cnc3c(N)ncnc32)[C@H](O)[C@@H]1OP(=O)(O)O; assay: NADH oxidation, A340; type: biochemical, Thermoanaerobacterium thermosaccharolyticum; settings: 0.3 mM NADH, 100 mM MOPS-KOH pH 7.5, 55 °C
# T3 construct: His-tagged (vector pD861-CH), codon-optimised, expressed in E. coli BL21(DE3)
# Description: NADH oxidation, A340 on Tt_Hbd
# [4] = system: CC(O)CC(=O)SCCNC(=O)CCNC(=O)[C@H](O)C(C)(C)COP(=O)(O)OP(=O)(O)OC[C@H]1O[C@@H](n2cnc3c(N)ncnc32)[C@H](O)[C@@H]1OP(=O)(O)O; assay: purified protein; settings: 0.3 mM NADH, coupled with Ter, 100 mM MOPS-KOH pH 7.5, 55 °C
# Tt_Hbd (Thermoanaerobacterium thermosaccharolyticum DSM 571), sequence (chain, as listed by the source): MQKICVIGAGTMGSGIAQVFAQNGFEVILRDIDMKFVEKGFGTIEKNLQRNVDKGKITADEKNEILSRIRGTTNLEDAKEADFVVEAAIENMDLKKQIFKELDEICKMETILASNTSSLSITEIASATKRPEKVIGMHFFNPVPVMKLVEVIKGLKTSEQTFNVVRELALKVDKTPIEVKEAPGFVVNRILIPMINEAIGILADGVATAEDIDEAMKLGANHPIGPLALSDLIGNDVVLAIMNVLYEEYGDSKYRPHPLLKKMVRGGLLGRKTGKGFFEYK
# Tt_Hbd (Thermoanaerobacterium thermosaccharolyticum DSM 571; D31A), sequence (chain, as listed by the source D31A): as the sequence (chain, as listed by the source) above, with D31A counted along it
substance,measurement,setting,value
Tt_Hbd (Thermoanaerobacterium thermosaccharolyticum DSM 571),Km,[1],1100 ± 200 µM
same,Vmax,[1],15.2 µmol/min/mg
same,Km,[2],50 ± 20 µM
same,Vmax,[2],61.4 µmol/min/mg
same,Km,[3],30 ± 10 µM
Tt_Crt (Thermoanaerobacterium thermosaccharolyticum DSM 571),Km,[4],600 ± 100 µM
Tt_Hbd (Thermoanaerobacterium thermosaccharolyticum DSM 571; D31A),Km,[1],30 ± 10 µM
same,Vmax,[1],485 µmol/min/mg
same,Km,[2],60 ± 20 µM
same,Vmax,[2],38.5 µmol/min/mg
